According to EP4428145A1, “ANTIBACTERIAL PEPTIDE” (Sumitomo Chemical Company, Limited, priority 2021, dated 2024):
Primed or numbered codes have the meaning given here. Where no end group is shown, it is not given here. [ ]: non-standard residue; d: D form. Dhb′ = not defined here; Dha = C=C(N)C(=O)O

What was measured:
Format in all cases: cell-based, Lactobacillus sakei
[1] = tested on: L. sakei; assay: Wide pH-range stability test, antimicrobial activity after pH treatment, spot-on-lawn (Experiment 6); parameters: key to Antimicrobial activity after pH treatment / Antimicrobial activity, Untreated: -: Without antimicrobial activity; +: With antimicrobial activity; ++: With strong antimicrobial activity; +++: With very strong antimicrobial activity; details: for Antimicrobial activity after pH treatment: 30°C
Protocol: (§1) Like in Experiment 1A, antimicrobial activity of the antimicrobial peptide was evaluated by a spot-on-lawn method. As the test bacteria, Lactobacillus sakei (NBRC15893) was used. After overnight culturing, the test bacteria were mixed and diluted with Lactobacilli AOAC agar so as to achieve a density of 4×10^7 CFU/mL, and the resultant was spread over an MRS plate containing 2% agar. The test liquid was spotted on the test bacteria, and incubated overnight at 30°C. The size of the growth inhibition circle of L. sakei was evaluated as the antimicrobial activity.
Each peptide was redissolved and prepared in the following buffer; Sodium acetate-acetic acid (50 mM, pH4.0), Sodium phosphate (50 mM, pH7.4), glycine-NaOH (50 mM, pH10.0). The test solution thus prepared at the above-specified pH was incubated at 30°C. The duration of the incubation was 0 hours, 0.5 hours, 2 hours, 4 hours, 6 hours, and 24 hours, and at the completion of the incubation, TFA was added in a final concentration of 0.2%. […] By the same spot-on-lawn method as adopted in the above-mentioned antimicrobial activity test, the polypeptide was added in drops to form a growth inhibition circle of L. sakei, and thereby the antimicrobial activity of the polypeptide after pH treatment was evaluated. As a positive control (PC), culture supernatant of a nisin A-producing lactic acid bacterium (Lactococcus lactis ATCC-11454 strain) was used. A sample that was prepared solely with a 0.2% TFA aqueous solution was used as an untreated control.
(§2) Nisin A used in Examples was Nisin from Lactococcus lactis 2.5% (manufactured by Sigma-Aldrich corporation) that was used after concentration and purification. The details of nisin A are as described by J. C. Slootweg et al., J. Pept. Sci., 19, 692-699(2013). To 1 g of commercially available 2.5% nisin A (containing about 25 mg of nisin A), 25 mL of water was added, and the resultant was stirred for 15 minutes at room temperature. Centrifugation (15 minutes, 2500 rpm) was carried out to separate off the precipitate, and only the supernatant was transferred to another tube. To the resulting solution, 20 mL of dichloromethane was added. To collect the white precipitate that was present between the aqueous layer and the organic layer, the upper layer and the lower layer were removed. Another round of centrifugation (15 minutes, 2500 rpm) was carried out to remove, again, the upper layer and the lower layer. The intermediate layer that was sought after was dried in a reduced-pressure centrifuge and re-dissolved in 7.45 mL of water, and thereby a 1-mM purified Nisin product was obtained. The resulting purified product was used as nisin A in each stability test.

[2] = tested on: L. sakei; assay: Thermal stability test, antimicrobial activity after heat treatment, spot-on-lawn (Experiment 7); parameters: key to Antimicrobial activity after heat treatment / Antimicrobial activity, Untreated: -: Without antimicrobial activity; +: With antimicrobial activity; ++: With strong antimicrobial activity; +++: With very strong antimicrobial activity; details: for thermal stability of antimicrobial activity: result in words
Protocol: as §1, §2
The test solution was subjected to heat treatment at 80°C for 10 minutes, or at 80°C for 30 minutes, or at 100°C for 10 minutes, or at 100°C for 30 minutes, or at 121°C for 15 minutes. By the same spot-on-lawn method as adopted in the above-mentioned antimicrobial activity test, the polypeptide was added in drops to form a growth inhibition circle of L. sakei, and thereby the antimicrobial activity of the polypeptide after heat treatment was evaluated. As a positive control (PC), culture supernatant of a nisin A-producing lactic acid bacterium (Lactococcus lactis ATCC-1 1454 strain) was used. A sample without the heat process was used as an untreated control.

[3] = tested on: L. sakei; assay: Oxidation stability test, antimicrobial activity after hydrogen peroxide treatment, spot-on-lawn (Experiment 8); parameters: key to Antimicrobial activity, Before oxidation treatment / Antimicrobial activity, After oxidation treatment: -: Without antimicrobial activity; +: With antimicrobial activity; ++: With strong antimicrobial activity; +++: With very strong antimicrobial activity; details: for Antimicrobial activity, After oxidation treatment: 1-mM solution treated with 10 mM hydrogen peroxide at 40°C for 6 hours
Protocol: as §1, §2
The method of oxidation treatment is as described by Toshihiro T. et al., J. Proteome Res., 12, 753-762(2013). To a 1-mM solution of lactobacin A or nisin A, hydrogen peroxide was added to achieve a final concentration of 10 mM, followed by reaction at 40°C for 6 hours. After the completion of reaction, the reaction liquid was diluted with water to achieve a polypeptide concentration of 10 µM or 1 µM. By the same spot-on-lawn method as adopted in the above-mentioned antimicrobial activity test, the polypeptide was added in drops to form a growth inhibition circle of L. sakei, and thereby the antimicrobial activity of the polypeptide after oxidation treatment was evaluated. Development of the oxidation reaction was calculated as a relative value of the peak area obtained by LC/MS measurement of the oxidation-treated test solution relative to the non- oxidation-treated test solution. As a positive control (PC), culture supernatant of a nisin A-producing lactic acid bacterium (Lactococcus lactis ATCC-11454 strain) was used.

Which “Antimicrobial activity after pH treatment” value ([1]; 10 µM, pH 4.0, 0 hr) does the source give for “nisin A (I[Dhb′]SI[Dha]LCTPGCKTGALMGCNMKTATCHCSIHV[Dha]K; thioether (positions not given here); not fully specified (some residues, bridges); also: lanthionine thioether crosslinks and dehydro residues, not placed; UniProt P13068 24-57, looked up) [Nisin from Lactococcus lactis 2.5% (Sigma-Aldrich) used after concentration and purification; known antimicrobial peptide]” here?
The value was “++”.

And the “Antimicrobial activity after pH treatment” value ([1]; 10 µM, pH 4.0, 0.5 hr)?
Its value is “++”.

What about the “Antimicrobial activity after pH treatment” value ([1]; 10 µM, pH 4.0, 2 hr) of the same substance?
Its value is “++”.

What about the “Antimicrobial activity after pH treatment” value ([1]; 10 µM, pH 4.0, 4 hr) of the same substance?
Its value is “+”.

And the “Antimicrobial activity after pH treatment” value ([1]; 10 µM, pH 4.0, 6 hr)?
The value was “+”.

And the “Antimicrobial activity after pH treatment” value ([1]; 10 µM, pH 4.0, 24 hr)?
Its value is “+”.

What about the “Antimicrobial activity after pH treatment” value ([1]; 10 µM, pH 7.4, 0 hr) of the same substance?
The value was “-”.

And the “Antimicrobial activity after pH treatment” value ([1]; 10 µM, pH 7.4, 0.5 hr)?
Its value is “-”.

And the “Antimicrobial activity after pH treatment” value ([1]; 10 µM, pH 7.4, 2 hr)?
The value was “-”.

What about the “Antimicrobial activity after pH treatment” value ([1]; 10 µM, pH 7.4, 4 hr) of the same substance?
Its value is “-”.

What about the “Antimicrobial activity after pH treatment” value ([1]; 10 µM, pH 7.4, 6 hr) of the same substance?
The value was “-”.

What about the “Antimicrobial activity after pH treatment” value ([1]; 10 µM, pH 7.4, 24 hr) of the same substance?
The value was “-”.

And the “Antimicrobial activity after pH treatment” value ([1]; 10 µM, pH 10.0, 0 hr)?
Its value is “-”.

What about the “Antimicrobial activity after pH treatment” value ([1]; 10 µM, pH 10.0, 0.5 hr) of the same substance?
The value was “+”.

What about the “Antimicrobial activity after pH treatment” value ([1]; 10 µM, pH 10.0, 2 hr) of the same substance?
The value was “-”.

What about the “Antimicrobial activity after pH treatment” value ([1]; 10 µM, pH 10.0, 4 hr) of the same substance?
Its value is “-”.

And the “Antimicrobial activity after pH treatment” value ([1]; 10 µM, pH 10.0, 6 hr)?
The value was “-”.

What about the “Antimicrobial activity after pH treatment” value ([1]; 10 µM, pH 10.0, 24 hr) of the same substance?
Its value is “-”.

And the “Antimicrobial activity, Untreated” value ([1]; 10 µM, untreated control prepared solely with 0.2% TFA aqueous solution)?
The value was “++”.

What about the “pH stability of antimicrobial activity” value ([1]; result in words, neutral range and alkaline range) of the same substance?
The value was “lost its antimicrobial activity”.

What about the “Antimicrobial activity after heat treatment” value ([2]; 10 µM, 80°C 10 mm) of the same substance?
The value was “+”.

What about the “Antimicrobial activity after heat treatment” value ([2]; 10 µM, 80°C 30 min) of the same substance?
The value was “-”.

What about the “Antimicrobial activity after heat treatment” value ([2]; 10 µM, 100°C 10 min) of the same substance?
The value was “-”.

What about the “Antimicrobial activity after heat treatment” value ([2]; 10 µM, 100°C 30 min) of the same substance?
The value was “-”.

What about the “Antimicrobial activity after heat treatment” value ([2]; 10 µM, 121°C 15 min) of the same substance?
The value was “-”.

What about the “Antimicrobial activity, Untreated” value ([2]; 10 µM, sample without the heat process) of the same substance?
Its value is “++”.

And the “thermal stability of antimicrobial activity” value ([2]; any heat treatment beyond 80°C for 10 minutes)?
The value was “lost its antimicrobial activity”.

What about the “thermal stability of antimicrobial activity” value ([2]; heat treatment at 80°C for 10 minutes) of the same substance?
Its value is “retained its activity”.

What about the “Antimicrobial activity, Before oxidation treatment” value ([3]; 1 µM) of the same substance?
The value was “+”.

And the “Antimicrobial activity, Before oxidation treatment” value ([3]; 10 µM)?
Its value is “++”.

What about the “Antimicrobial activity, After oxidation treatment” value ([3]; diluted to 1 µM) of the same substance?
The value was “-”.

What about the “Antimicrobial activity, After oxidation treatment” value ([3]; diluted to 10 µM) of the same substance?
Its value is “-”.

And the “oxidation stability of antimicrobial activity” value ([3]; result in words, after oxidation treatment with 10-mM hydrogen peroxide)?
The value was “lost its antimicrobial activity”.
